Laboratory results taken from US20030144209A1 (MASSACHUSETTS GERNERAL HOSPITAL, published 2003).
Square brackets hold non-standard residues; d marks the D form. Ends that are not written are not given here. * marks the point of attachment. Propionyl = CCC(=O)*

T1: human PTH-1 receptor (human, UniProt Q03431 27-593)
T1 sequence (looked up): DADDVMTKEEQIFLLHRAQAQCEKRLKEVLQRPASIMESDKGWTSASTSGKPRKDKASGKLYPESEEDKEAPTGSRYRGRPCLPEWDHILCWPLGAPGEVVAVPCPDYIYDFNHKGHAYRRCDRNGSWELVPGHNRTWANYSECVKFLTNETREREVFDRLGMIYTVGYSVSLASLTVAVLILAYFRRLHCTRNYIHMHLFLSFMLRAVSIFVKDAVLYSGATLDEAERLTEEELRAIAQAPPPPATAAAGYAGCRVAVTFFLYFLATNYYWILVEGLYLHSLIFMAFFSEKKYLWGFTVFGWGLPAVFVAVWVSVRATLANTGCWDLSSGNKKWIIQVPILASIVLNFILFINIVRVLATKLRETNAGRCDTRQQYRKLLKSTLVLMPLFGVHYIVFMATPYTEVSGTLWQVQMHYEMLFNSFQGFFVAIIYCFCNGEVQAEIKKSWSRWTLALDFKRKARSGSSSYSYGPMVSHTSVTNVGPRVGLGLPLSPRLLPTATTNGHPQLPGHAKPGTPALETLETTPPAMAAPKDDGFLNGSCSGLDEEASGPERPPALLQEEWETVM

B1: desamino-[Ala^1]hPTH(1-34)NH2 (peptide)
peptide: [Propionyl]VSEIQLMHNLGKHLNSMERVEWLRKKLQDVHNF-NH2
SMILES: CCC(=O)N[C@H](C(=O)N[C@@H](CO)C(=O)N[C@@H](CCC(=O)O)C(=O)N[C@H](C(=O)N[C@@H](CCC(N)=O)C(=O)N[C@@H](CC(C)C)C(=O)N[C@@H](CCSC)C(=O)N[C@@H](Cc1c[nH]cn1)C(=O)N[C@@H](CC(N)=O)C(=O)N[C@@H](CC(C)C)C(=O)NCC(=O)N[C@@H](CCCCN)C(=O)N[C@@H](Cc1c[nH]cn1)C(=O)N[C@@H](CC(C)C)C(=O)N[C@@H](CC(N)=O)C(=O)N[C@@H](CO)C(=O)N[C@@H](CCSC)C(=O)N[C@@H](CCC(=O)O)C(=O)N[C@@H](CCCNC(=N)N)C(=O)N[C@H](C(=O)N[C@@H](CCC(=O)O)C(=O)N[C@@H](Cc1c[nH]c2ccccc12)C(=O)N[C@@H](CC(C)C)C(=O)N[C@@H](CCCNC(=N)N)C(=O)N[C@@H](CCCCN)C(=O)N[C@@H](CCCCN)C(=O)N[C@@H](CC(C)C)C(=O)N[C@@H](CCC(N)=O)C(=O)N[C@@H](CC(=O)O)C(=O)N[C@H](C(=O)N[C@@H](Cc1c[nH]cn1)C(=O)N[C@@H](CC(N)=O)C(=O)N[C@@H](Cc1ccccc1)C(N)=O)C(C)C)C(C)C)[C@@H](C)CC)C(C)C
notes: Analog of human PTH(1-34) in which Ser1 is replaced by desamino alanine; also called [desamino Ala^1]PTH(1-34); desamino-[Ala^1] peptide
B2: desamino-[Gly^1]hPTH(1-34)NH2 (peptide)
peptide: [Ac]VSEIQLMHNLGKHLNSMERVEWLRKKLQDVHNF-NH2
notes: Analog of human PTH(1-34) in which Ser1 is replaced by desamino glycine; also called [desaminoGly^1]; PTH(1-34); desamino-[Gly^1] peptide

Assays:
human PTH-1 receptor = molecular target: T1, human PTH-1 receptor; test: cell-based or functional assay
human PTH-2 receptor [1] = molecular target: T2, human PTH-2 receptor (human, UniProt P49190 25-550); test: cell-based or functional assay
T2 sequence (P49190 25-550): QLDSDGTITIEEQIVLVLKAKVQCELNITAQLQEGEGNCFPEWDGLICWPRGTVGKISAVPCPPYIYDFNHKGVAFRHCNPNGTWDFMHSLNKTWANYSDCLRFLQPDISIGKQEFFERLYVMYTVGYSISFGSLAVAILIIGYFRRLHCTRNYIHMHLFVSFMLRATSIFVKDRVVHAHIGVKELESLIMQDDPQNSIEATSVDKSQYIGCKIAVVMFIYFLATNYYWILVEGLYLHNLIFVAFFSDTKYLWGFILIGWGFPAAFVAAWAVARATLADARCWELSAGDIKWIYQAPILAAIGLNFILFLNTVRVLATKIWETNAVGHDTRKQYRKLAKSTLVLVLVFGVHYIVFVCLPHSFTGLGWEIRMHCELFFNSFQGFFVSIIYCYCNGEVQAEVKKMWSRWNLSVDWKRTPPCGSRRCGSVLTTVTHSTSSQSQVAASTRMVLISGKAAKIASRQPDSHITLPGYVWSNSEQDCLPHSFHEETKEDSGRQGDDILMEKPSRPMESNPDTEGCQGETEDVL

human PTH-2 receptor [2] = molecular target: T2, human PTH-2 receptor; test: competitive displacement of 125I-[Nle8,21]rPTH(1-34) from HPR2-7 cells expressing the human PTH-2 receptor
From the text: Cell layers were washed three times before solubilization for determination of cell-associated radioactivity.

Molecule	phospholipase C (PLC) activity in HKRK-B7 cells at 1000 nM (% of the hPTH(1-34) maximum) (human PTH-1 receptor)	EC50 of AC activation, fold lower than hPTH(1-34) (human PTH-2 receptor [1]) [fold]	EC50 of adenylyl cyclase (AC) activation (human PTH-2 receptor [1]) [nM]	PLC stimulation relative to 1000 nM hPTH(1-34) (human PTH-2 receptor [1]) [% greater]	maximal AC response relative to hPTH(1-34) (human PTH-2 receptor [1]) [fold]	fold decrease in AC activity relative to the amino-bearing peptide (human PTH-1 receptor) [fold]	fold higher apparent binding affinity relative to hPTH(1-34) (human PTH-2 receptor [2]) [fold]	AC activation relative to hPTH(1-34) (human PTH-2 receptor [1]) [fold]	AC activation relative to hPTH(1-34) (human PTH-1 receptor) [fold]
[Gly^1]hPTH(1-34)NH2 (from UniProt P01270 32-65) (peptide)	50								
B1		3	10	50	2	10	10		
B2		3	10	50	2	10	10		
VSEIQLMHNLGKHLNSMERVEWLRKKLQDVHNF-NH2 (peptide, UniProt P01270 33-65, looked up) [hPTH(2-34)]								≤ 10	≤ 10
